Assay in all cases: activation reporter or marker
In test [1] the target is T1, MTHFRp.R238H peptide on HLA-B*40:01 (human).
T1 peptide: FEADTFFHFV

Test [2] concerns the target T2, PREPp.G384A peptide on HLA-B*35:01 (human).
T2 peptide: FPLDVGSIVAY

Test [3] has as its target T3, VPS13Bp.G2602E peptide on HLA-A*02:01 (human).
T3 peptide: FVNLEQHVV

Test [4] has as its target T4, ICKp.P591T peptide on HLA-C*12:02 (human).
T4 peptide: RTHPGRPFF

Test [5] deals with T5, STRADAp.M189V peptide on HLA-C*07:01 (human).
T5 peptide: KALDYIHHV

In test [6] the target is T6, CLSTN1p.L289M peptide on HLA-C*03:03 (human).
T6 peptide: LAVFPNIHM

Test [7] has as its target T7, UGGT2p.L880V peptide on HLA-C*12:02 (human).
T7 peptide: FVGPLDEDF

Test [8] addresses T8, CEBPZp.S100F peptide on HLA-A*24:02 (human).
T8 peptide: KYTKAFLV

Test [9] addresses T9, GPSM2p.D77A peptide on HLA-C*03:03 (human).
T9 peptide: YLHAYAKAL

The target of test [10] is T10, PDS5Bp.L203V peptide on HLA-A*02:01 (human).
T10 peptide: LLDTVLVNV

For test [11], the target named is T11, GALNT2p.L14R peptide on HLA-B*35:01 (human).
T11 peptide: FAFRWVLGIAY

Test [12] has as its target T12, STRADAp.M189V peptide on HLA-A*01:01 (human).
T12 peptide: ALDYIHHVGYV

Test [13] addresses T13, SVILp.E1748D peptide on HLA-A*02:01 (human).
T13 peptide: RQFDITSVSV

Test [14] concerns the target T14, CLSTN1p.L289M peptide on HLA-B*35:01 (human).
T14 peptide: FPNIHMETC

The target of test [15] is T15, ICKp.P591T peptide on HLA-B*39:01 (human).
T15 peptide: MRTHPGRPFF

In test [16] the target is T16, TENM4p.E1133D peptide on HLA-C*05:01 (human).
T16 peptide: LSDAFVSV

Test [17] addresses T17, UAP1p.H469Y peptide on HLA-A*02:01 (human).
T17 peptide: ITADVNYNL

Test [18] concerns the target T18, PPP5Cp.E428K peptide on HLA-A*24:02 (human).
T18 peptide: DYIIRSHKV

B1: TCR814 (TCR, V domains shown)
Valpha: TQLLEQSPQFLSIQEGENLTVYCNSSSVFSSLQWYRQEPGEGPVLLVTVVTGGEVKKLKRLTFQFGDARKDSSLHITAAQPGDTGLYLCAGLLGDSGAGSYQLTFGKGTKLSVIP
Vbeta: DAGITQSPRHKVTETGTPVTLRCHQTENHRYMYWYRQDPGHGLRLIHYSYGVKDTDKGEVSDGYSVSRSKTEDFLLTLESATSSQTSVYFCAISESWMSSYNEQFFGPGTRLTVL
On to B1, for which the binding result in test [1] was “recognises”.

B2: TCR692 (TCR, V domains shown)
Valpha: GEDVEQSLFLSVREGDSSVINCTYTDSSSTYLYWYKQEPGAGLQLLTYIFSNMDMKQDQRLTVLLNKKDKHLSLRIADTQTGDSAIYFCAERNGGATNKLIFGTGTLLAVQP
Vbeta: DTEVTQTPKHLVMGMTNKKSLKCEQHMGHRAMYWYKQKAKKPPELMFVYSYEKLSINESVPSRFSPECPNSSLLNLHLHALQPEDSALYLCASSQDRTGAYSPLHFGNGTRLTVT
As for B2, the binding result in test [2] is “recognises”.

B3: TCR535 (TCR, V domains shown)
Valpha: AQKVTQAQTEISVVEKEDVTLDCVYETRDTTYYLFWYKQPPSGELVFLIRRNSFDEQNEISGRYSWNFQKSTSSFNFTITASQVVDSAVYFCALSTSMDSNYQLIWGAGTKLIIKP
Vbeta: EPEVTQTPSHQVTQMGQEVILRCVPISNHLYFYWYRQILGQKVEFLVSFYNNEISEKSEIFDDQFSVERPDGSNFTLKIRSTKLEDSAMYFCASSCWDRSTDTQYFGPGTRLTVL
Turning to B3, the binding result in test [3] is given as “recognises”.

B4: TCR689 (TCR, V domains shown)
Valpha: GIQVEQSPPDLILQEGANSTLRCNFSDSVNNLQWFHQNPWGQLINLFYIPSGTKQNGRLSATTVATERYSLLYISSSQTTDSGVYFCAVVLSYNTDKLIFGTGTRLQVFP
Vbeta: DVKVTQSSRYLVKRTGEKVFLECVQDMDHENMFWYRQDPGLGLRLIYFSYDVKMKEKGDIPEGYSVSREKKERFSLILESASTNQTSMYLCASSLSPPGYLETQYFGPGTRLLVL
On to B4, for which the binding result in [4] was “recognises”.

B5: TCR827 (TCR, V domains shown)
Valpha: GQQVMQIPQYQHVQEGEDFTTYCNSSTTLSNIQWYKQRPGGHPVFLIQLVKSGEVKKQKRLTFQFGEAKKNSSLHITATQTTDVGTYFCAAPDAGGTSYGKLTFGQGTILTVHP
Vbeta: NAGVTQTPKFQVLKTGQSMTLQCAQDMNHEYMSWYRQDPGMGLRLIHYSVGAGITDQGEVPNGYNVSRSTTEDFPLRLLSAAPSQTSVYFCASSPLNPYNEQFFGPGTRLTVL
In the case of B5, in test [5], the binding result is recorded as “recognises”.

B6: TCR696 (TCR, V domains shown)
Valpha: AQSVTQLDSHVSVSEGTPVLLRCNYSSSYSPSLFWYVQHPNKGLQLLLKYTSAATLVKGINGFEAEFKKSETSFHLTKPSAHMSDAAEYFCVVSAPDTGRRALTFGSGTRLQVQP
Vbeta: GAGVSQSPSNKVTEKGKDVELRCDPISGHTALYWYRQSLGQGLEFLIYFQGNSAPDKSGLPSDRFSAERTGGSVSTLTIQRTQQEDSAVYLCASSSGQGFTDTQYFGPGTRLTVL
Turning to B6, in test [6], the binding result is given as “recognises”.

B7: TCR682 (TCR, V domains shown)
Valpha: AQSVTQPDIHITVSEGASLELRCNYSYGATPYLFWYVQSPGQGLQLLLKYFSGDTLVQGIKGFEAEFKRSQSSFNLRKPSVHWSDAAEYFCAVAPDNYGQNFVFGPGTRLSVLP
Vbeta: DAMVIQNPRYQVTQFGKPVTLSCSQTLNHNVMYWYQQKSSQAPKLLFHYYDKDFNNEADTPDNFQSRRPNTSFCFLDIRSPGLGDAAMYLCATYSSGANVLTFGAGSRLTVL
On to B7, for which the binding result in test [7] is on record as “recognises”.

B8: TCR445 (TCR, V domains shown)
Valpha: AQTVTQSQPEMSVQEAETVTLSCTYDTSESDYYLFWYKQPPSRQMILVIRQEAYKQQNATENRFSVNFQKAAKSFSLKISDSQLGDAAMYFCASSRWGGSEKLVFGKGTKLTVNP
Vbeta: DSGVTQTPKHLITATGQRVTLRCSPRSGDLSVYWYQQSLDQGLQFLIQYYNGEERAKGNILERFSAQQFPDLHSELNLSSLELGDSALYFCASSDSRTGGTDTQYFGPGTRLTVL
As to B8, the binding result in test [8] is “recognises”.

B9: TCR538 (TCR, V domains shown)
Valpha: ILNVEQSPQSLHVQEGDSTNFTCSFPSSNFYALHWYRWETAKSPEALFVMTLNGDEKKKGRISATLNTKEGYSYLYIKGSQPEDSATYLCAFDNYGQNFVFGPGTRLSVLP
Vbeta: DVKVTQSSRYLVKRTGEKVFLECVQDMDHENMFWYRQDPGLGLRLIYFSYDVKMKEKGDIPEGYSVSREKKERFSLILESASTNQTSMYLCASSLTGSFNEQFFGPGTRLTVL
Consider B9, for which the binding result in [9] is “recognises”.

B10: TCR447 (TCR, V domains shown)
Valpha: EDQVTQSPEALRLQEGESSSLNCSYTVSGLRGLFWYRQDPGKGPEFLFTLYSAGEEKEKERLKATLTKKESFLHITAPKPEDSATYLCAVHHLNRDDKIIFGKGTRLHILP
Vbeta: DSGVTQTPKHLITATGQRVTLRCSPRSGDLSVYWYQQSLDQGLQFLIQYYNGEERAKGNILERFSAQQFPDLHSELNLSSLELGDSALYFCASSADLGTREQYFGPGTRLTVT
As to B10, in [10], the binding result was “recognises”.

B11: TCR802 (TCR, V domains shown)
Valpha: AQSVSQHNHHVILSEAASLELGCNYSYGGTVNLFWYVQYPGQHLQLLLKYFSGDPLVKGIKGFEAEFIKSKFSFNLRKPSVQWSDTAEYFCAVNLLTDSWGKFQFGAGTQVVVTP
Vbeta: EPEVTQTPSHQVTQMGQEVILRCVPISNHLYFYWYRQILGQKVEFLVSFYNNEISEKSEIFDDQFSVERPDGSNFTLKIRSTKLEDSAMYFCATMGSGGNEQFFGPGTRLTVL
In the case of B11, the binding result in test [11] is “recognises”.

B12: TCR829 (TCR, V domains shown)
Valpha: QKEVEQDPGPLSVPEGAIVSLNCTYSNSAFQYFMWYRQYSRKGPELLMYTYSSGNKEDGRFTAQVDKSSKYISLFIRDSQPSDSATYLCAMSPTYSGAGSYQLTFGKGTKLSVIP
Vbeta: GAVVSQHPSWVICKSGTSVKIECRSLDFQATTMFWYRQFPKQSLMLMATSNEGSKATYEQGVEKDKFLINHASLTLSTLTVTSAHPEDSSFYICSASLLGEGYEQYFGPGTRLTVT
Turning to B12, the binding result in test [12] is on record as “recognises”.

B13: TCR441 (TCR, V domains shown)
Valpha: ILNVEQSPQSLHVQEGDSTNFTCSFPSSNFYALHWYRWETAKSPEALFVMTLNGDEKKKGRISATLNTKEGYSYLYIKGSQPEDSATYLCAPSKYNNNDMRFGAGTRLTVKP
Vbeta: DAGITQSPRHKVTETGTPVTLRCHQTENHRYMYWYRQDPGHGLRLIHYSYGVKDTDKGEVSDGYSVSRSKTEDFLLTLESATSSQTSVYFCAISGTEDGELFFGEGSRLTVL
Regarding B13, in test [13], the binding result is on record as “recognises”.

B14: TCR691 (TCR, V domains shown)
Valpha: GQSLEQPSEVTAVEGAIVQINCTYQTSGFYGLSWYQQHDGGAPTFLSYNALDGLEETGRFSSFLSRSDSYGYLLLQELQMKDSASYFCAVQAGTALIFGKGTTLSVSS
Vbeta: DTEVTQTPKHLVMGMTNKKSLKCEQHMGHRAMYWYKQKAKKPPELMFVYSYEKLSINESVPSRFSPECPNSSLLNLHLHALQPEDSALYLCASSQPGGGNTEAFFGQGTRLTVV
Turning to B14, the binding result in test [14] is on record as “recognises”.

B15: TCR687 (TCR, V domains shown)
Valpha: AQSVTQLGSHVSVSEGALVLLRCNYSSSVPPYLFWYVQYPNQGLQLLLKYTSAATLVKGINGFEAEFKKSETSFHLTKPSAHMSDAAEYFCAVTDSNYQLIWGAGTKLIIKP
Vbeta: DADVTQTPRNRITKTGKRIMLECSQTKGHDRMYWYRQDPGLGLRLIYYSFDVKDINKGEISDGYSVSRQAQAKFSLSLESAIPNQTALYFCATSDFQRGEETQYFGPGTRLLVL
For B15, the binding result in test [15] is on record as “recognises”.

B16: TCR707 (TCR, V domains shown)
Valpha: QKEVEQNSGPLSVPEGAIASLNCTYSDRGSQSFFWYRQYSGKSPELIMSIYSNGDKEDGRFTAQLNKASQYVSLLIRDSQPSDSATYLCAVNVFNKFYFGSGTKLNVKP
Vbeta: DAGVIQSPRHEVTEMGQEVTLRCKPISGHDYLFWYRQTMMRGLELLIYFNNNVPIDDSGMPEDRFSAKMPNASFSTLKIQPSEPRDSAVYFCASSFLITDTQYFGPGTRLTVL
With B16, the binding result in test [16] is listed as “recognises”.

B17: TCR798 (TCR, V domains shown)
Valpha: AQSVTQLDSQVPVFEEAPVELRCNYSSSVSVYLFWYVQYPNQGLQLLLKYLSGSTLVKGINGFEAEFNKSQTSFHLRKPSVHISDTAEYFCAVSYSGSARQLTFGSGTQLTVLP
Vbeta: DAGVIQSPRHEVTEMGQEVTLRCKPISGHNSLFWYRQTMMRGLELLIYFNNNVPIDDSGMPEDRFSAKMPNASFSTLKIQPSEPRDSAVYFCASNPGGRGEKLFFGSGTQLSVL
On to B17, for which the binding result in test [17] is listed as “recognises”.

B18: TCR536 (TCR, V domains shown)
Valpha: AQSVAQPEDQVNVAEGNPLTVKCTYSVSGNPYLFWYVQYPNRGLQFLLKYITGDNLVKGSYGFEAEFNKSQTSFHLKKPSALVSDSALYFCAVSPLTSGTYKYIFGTGTRLKVLA
Vbeta: SQTIHQWPATLVQPVGSPLSLECTVEGTSNPNLYWYRQAAGRGLQLLFYSVGIGQISSEVPQNLSASRPQDRQFILSSKKLLLSDSGFYLCAWSEGDETQYFGPGTRLLVL
B18: the binding result in [18] is “recognises”.

For the origin of these results see publication PMC9768791 (2022).
